Test results from patent publication US20260258115A1 (MAPP BIOPHARMACEUTICAL, published 2026).
Positions count from the first letter of the chain named.

B1: ADI-19422 (antibody, V domains shown)
VH: not shown
VL: QPVLTQPPSVSVAPGKTARITCGGNNIGSKSVHWYQQKPGQAPVLVVYDDSDRPSGIPERFSGSNSGNTATLTISRVEAGDEADYYCQVWDSSSDHWVFGGGTKLTVL
notes: full-length IgG
B2: ADI-19424 (antibody, V domains shown)
VH: EVQLLESGGGLVQPGGSLRLSCAASGFTVSSNYMSWVRQAPGKGLEWVSDIYSGGRTDYADSVKGRFTISRDNSKNTLDLQMNSLRAEDTAVYYCARETLGMDHWYFDLWGRGTLVTVSS
VL: B1 VL with V3G, S93T, W97P
notes: full-length IgG
B3: ADI-19425 (antibody, V domains shown)
VH: EVQLVESGGGLVKPGGSLRLSCAASGFTFSSYSMNWVRQAPGKGLEWVSSISSSSSYIYYADSVKGRFTISRDNAKNSLYLQMNSLRAEDTAVYYCARLGYCSGGSCHFDYWGQGTLVTVSS
VL: QPVLTQPPSVSGAPGQRVTISCTGSSSNIGAGYDVHWYQQLPGTAPKLLIYGNSNRPSGVPDRFSGSKSGTSASLAITGLQAEDEADYYCQSYDSSLSGFYVFGTGTKLTVL
notes: full-length IgG; also called Ab 140
B4: ADI-41550 (antibody, V domains shown)
VH: QVQLVQSGAEVKMPGASVRVSCKASGYTLGSHGITWVRQAPGQGLEWMGWISANNFNTHYAQKFQGRVTMTTDTSTSTAYMELRSLRSDDTAVYYCAREVMGHMVETISFDYWGQGTLVTVSS
VL: B1 VL with K16Q, K30E, Y48H, S92F, S93T, S94P, W97P, L105V
B5: ADI-41463 (antibody, V domains shown)
VH: QVQLVQSGAEVKKPGASVKVSCTASGYSFTDYDISWVRQAPGQGLEWMGWISAYNGNTNYAQKFQDRVTMNTDTSTNTAYMELRGLRSDDTAVYYCARNCYYGSGTCYIEDYYFDYWGQGTLVTVSS
VL: DIQMTQSPSSLSASVGDRVTITCRASQDIKNDLGWYQQKPGKPPKRLIYGASRSQSGVPSRFSGSGSGTDFTLTIYSLQPEDFATYYCLQHSDYPFTFGQGTRLEIK
notes: also called Ab 747; Antibody Number 747
B6: ADI-41469 (antibody, V domains shown)
VH: EVQLVESGGGVVQPGRSLRLSCAASGFTFSSYGMHWVRQAPGKGLEWVAVISYDGSFIKYADSMMGRFTISRDNSKNTLYLQMSSLRPEDTATYYCAKDALIPEYWGQGTLVTVSS
VL: QPVLTQPASVSGSPGQSITISCTGTSSDVGGYNYVSWYQKHPDKAPRVIIYEVSNRPSGVSNRFSGSKSGNTASLTISGLQAEDEADYYCCSYTSTSGVVFGGGTKLTVL
B7: ADI-41460 (antibody, V domains shown)
VH: QVTLKESGPALVKPTQTLTLTCTFSGFSLNTRGMCVSWVRQPPGKALEWLARIDWDDDKNYSTSLRTRLTISKDTSRNQVVLAMANMDPVDTATYYCARCARYDRSGYYVWYLDSWGQGTLVTVSS
VL: DIQMTQSPSSLSASVGDRVTITCRASQTIASYLNWYQQKPGKAPKLLIYVASTLQSGVPSRFSGSGSGTDFTLTISSLQPEDFATYYCQQSYSLTQWTFGQGTKVEIK
B8: ADI-41461 (antibody, V domains shown)
VH: QVQLVQSGAEVKKPGASVKVSCRASGYTFSSYDINWVRQATGQGLEWMGWMSPNSANTGYAQKFQGRVTMTRDTSINTAYMELSSLSSEDTAVYYCARFLGYCSGGSCYPGYGMDVWGQGTTVTVSS
VL: EIVLTQSPDSLAVSLGERATINCKSSQNVLYSSNNKDYLSWYQQKPGQPPKLLIYWASTRESGVPDRFSGSGSGTDFTLTINSLQAEDVAVYYCQQYYGTPYTFGQGTKLEIK
B9: ADI-41474 (antibody, V domains shown)
VH: QVQLVQSGAEVKRPGASVKVSCKISGYTFTSHYIHWLRQAPGQGLEWMGWINPNTGDTKYEQKFQGRVTMTRDTSLSTAYMELRRLRSDDTAVYYCARDSFYAANGYYFVWFDPWGQGALVTVSS
VL: DIQMTQSPTSLSASVGDRVTITCRASQSISSYLNWYQQKPGKAPRFLIYAASSLQSGVPSRFRGSGSGTDFTLTISSLQPEDFATYYCQQSYSSPYTFGQGTKVEIK
notes: also called Ab 757; Antibody Number 757
B10: ADI-41473 (antibody, V domains shown)
VH: QVQLVQSGPGLVKPSQTLSLTCAISGDSVSSNSAAWSWIRQSPSRGLEWLGRTYYRSKWYYDHAVSVEGRITINADTSKNHFSLQLNSVTPEDTAVYYCARDPDSGNYFHYYGMDVWGQGTTVTVSS
VL: ETTLTQSPATLSLSPGERATLSCRTSQSVSSYLAWYQQKPGQAPRLLIYDASRRATGIPARFSGSGSGTHFTLTITSLEPEDFAVYYCQQRSKWPPYSFGQGTKVDIK
B11: ADI-41472 (antibody, V domains shown)
VH: QVQLVQSGAEVKKPGSSVKVSCKASGGTFSSYAISWVRQAPGQGLEWMGRIIPVLDITNYAQKFQGRVTIMADKSTSTAYMELSSLRSEDTAIYYCARETSNFYFYYNAMDVWGQGTTVTVSS
VL: QPVLTQPPSASGSPGQSVTISCTGTSSDVGGDNYVSWYQQHPGKAPKLLIYEVSKRPSGVPDRFSGSRSGHTASLTVSGLQAEDEADYYCSSYAGRNNLGVFGGGTKLTVL
B12: ADI-41464 (antibody, V domains shown)
VH: QVQLVESGPGLVRPSGTLSLTCTVSGDSVNSYRWSWIRQSPGKGLEWIGYISYSGETNYNPSLKSRVSISVGTSRYQFFLKLSSVTAADTATYYCARDKTTIFGVSHYYFGVDVWGQGTTVTVSS
VL: DIVMTQTPLSLPVTPGEPASISCRSSQSLLKSDGYNSLDWYLQRPGQSPQLLIYLGSNRASGVPARFSGSGSGTDFTLKISRVEAEDVGVYYCMQALQTPFTFGPGTKVEIK
B13: ADI-41456 (antibody, V domains shown)
VH: EVQLLESGGGLFHPGGSLTLSCVASGFTLSTYYMHWVRQAPGKGLVWVARINSDGGYTTYADSVKGRFTVSRDNAKNTLYLQMNSLRVEDTAVYYCAREWVEFDSWGQGTLVTVSS
VL: NFMLTQPHSVSASPGKTVTISCTRSSGNIASNYVQWYQQRPGSSPTTVITEDNQRPSGVPDRFSGSIDSSSNSASLTISGLKTEDEADYYCQSYDSSTYVFGTGTKLTVL
notes: also called Ab 740; Antibody Number 740
B14: ADI-41459 (antibody, V domains shown)
VH: QVQLVESGGGLVQPGGSLRLSCAASGFPFSAYGINWVRQAPGKGLEWVSYISSTSTTIKYADSVKGRFTISRDDAKNSLYLQLRSLRPEDTAVYYCAGGVWSGYYIDFWGQGTPVTVSS
VL: NFMLTQPQSVSESPGKTVTISCTRSSGSIGSNFVQWYQQRPGSSPTTVIYEDYQRPSGVPDRFSGSIDSSSNSASLTISGLKTEDEADYYCQSYDADMMVFGGGTKLTVL
notes: also called Ab 743; Antibody Number 743
B15: ADI-41468 (antibody, V domains shown)
VH: QVQLQQWGAGPLKSSETLSLTCEVYGGPFSGYSWSWIRQPPGKGLEWIGEINHSGSTNYNPSLKSRVSFSVDTSKNQFSLKLSSVTAADTAVYYCARGAGFCTSTSCPPGLYYYYGMDVWGHGTTVTVSS
VL: SYELTQPLSVSVALGQTARITCGGNNIESKNVHWYQQMPGLAPVMVIYRDTNRPSGIPERFSGSNSGNTATLTISRAQAGDEADYYCQVWDSGTVIFGGGTKLTVL
notes: also called Ab 752; Antibody Number 752
B16: ADI-41471 (antibody, V domains shown)
VH: QVQLVQSGADVKKPGSSVKISCKASGGSFITNSLSWVRRAPGQGLEWMGGIIPVSGTTTYAQKFLGRVTFTADESTSTAYMELNSLRSEDTAVYYCARFLGTPYPNVHYGMDVWGQGTTVTVSS
VL: DIRVTQSPSSLSASVGARVTITCRASQSISTYLNWYQEKPGKAPKLLIYAASSLQRGVPSRFSGSGSETTFTLTISSLQPEDFATYYCQQSYTAAYNFGQGTKVEIK
B17: ADI-41466 (antibody, V domains shown)
VH: QVQLVQSGAEVKKPGASVKVSCKASGYTFNFYYMHWVRQAPGQGLEWMGWINPKSGGTSYAQKFQGRVIMTGDTSISTTYMELSRLRSDDTAVYYCARADTGLELDVWGQGTTVTVSS
VL: QSALIQPASVSGSPGQSITISCTGTSSDVGGYNYVSWYQQHPGKAPKLILYDVSKRPSGVSNRFSGSKSGNTASLTISGLQAEDESDYFCSSYTRSNTVVFGGGTKVTVL
notes: also called Ab 750; Antibody Number 750
B18: ADI-41455 (antibody, V domains shown)
VH: QVQLQESGPGLVKPSQTLSLTCSVSEGSVISGDYYWSWIRQSPGKGLEWLGYIHYSGSTYYNPSLKSRVTISVDTSKKQFSLKLSSVTAADTAVYYCARDLGCIGGVCSAYGLEHNYYFGMDVWGQGTTVTVSS
VL: EIVLTQSPATLSLSPGERATLSCRASQSVSSYLAWYQQKPGQAPRLLIYTASNRATGIPARFSGSGSGTDFTLTISSLEPEDFAVYYCQQRSSWPPYTFGQGTKLEIK

Molecular target: T1, RSV postfusion F (postF), subtype A (respiratory syncytial virus subtype A, UniProt P03420 26-513)
T1 construct: also called Postfusion subtype A; F deltaFP
Assay: BLI

B1: no binding.
B2: no binding.
B3: no binding.

Molecular target: T2, RSV prefusion F (preF), subtype B (respiratory syncytial virus subtype B)
T2 construct: also called Prefusion subtype B
Assay: BLI, IgG

Point of comparison: B1, Kd 10.8 nM. Against it:
- B2 — 6.3-fold lower, 1.71 nM
- B3 — 7.9-fold lower, 1.37 nM

Molecular target: RSV F on RSV subtype A virus (mKate-RSV A2) (respiratory syncytial virus A2, UniProt P03420 26-574)
Assay: cell-based or functional assay

Point of comparison: B1, “Neut IC50 subtype A” value 0.73 µg/mL. Against it:
- B2 — 9.1-fold lower, 0.08 µg/mL
- B3 — 36-fold lower, 0.02 µg/mL

Molecular target: RSV F on RSV subtype B virus (mKate-RSV B 18537) (respiratory syncytial virus B 18537, UniProt P13843 26-574)
Assay: cell-based or functional assay

Point of comparison: B3, “Neut IC50 subtype B” value 0.04 µg/mL. Against it:
- B1 — 48-fold higher, 1.9 µg/mL
- B2 — 5.2-fold higher, 0.21 µg/mL

Molecular target: RSV F on RSV-A2 virus (Respiratory Syncytial Virus (RSV-A2), UniProt P03420 26-574)
Assay: cell-based or functional assay

Point of comparison: B6, “Neutralization IC50 (RSV subtype A)” value 0.35 µg/mL. Against it:
- B4 — higher, > 25 µg/mL
- B5 — higher, > 25 µg/mL
- B7 — higher, > 25 µg/mL
- B8 — higher, > 25 µg/mL
- B9 — within 1.5-fold, 0.26 µg/mL
- B10 — higher, > 25 µg/mL
- B11 — within 1.5-fold, 0.27 µg/mL
- B12 — higher, > 25 µg/mL
- B13 — higher, > 25 µg/mL
- B14 — higher, > 25 µg/mL
- B15 — higher, > 25 µg/mL
- B16 — higher, > 25 µg/mL
- B17 — higher, > 25 µg/mL
- B18 — higher, > 25 µg/mL

Molecular target: RSV prefusion F (preF), DS-Cav1 (Respiratory Syncytial Virus, UniProt P03420 26-513)
Assay: BLI, IgG on anti-human IgG sensor, 100 nM antigen, 1:1 fit

Point of comparison: B9, Kd 17.8 nM. Against it:
- B5 — 6.6-fold lower, 2.68 nM
- B6 — 64-fold lower, 0.28 nM
- B7 — 14-fold lower, 1.23 nM
- B8 — 7.7-fold lower, 2.3 nM
- B10 — within 1.5-fold, 12.7 nM
- B11 — 5.8-fold lower, 3.05 nM
- B12 — 9.3-fold lower, 1.91 nM
- B13 — 12-fold lower, 1.48 nM
- B14 — 9.4-fold lower, 1.89 nM
- B15 — 25-fold lower, 0.716 nM
- B16 — 4.7-fold lower, 3.75 nM
- B17 — 8.7-fold lower, 2.05 nM
- B18 — 12-fold lower, 1.53 nM

Molecular target: RSV postfusion F (postF), F ΔFP (Respiratory Syncytial Virus, UniProt P03420 26-513)
Assay: as above

Point of comparison: B11, Kd 1.06 nM. Against it:
- B4 — 24-fold higher, 25.7 nM
- B5 — 2.2-fold lower, 0.485 nM
- B6 — 3.1-fold lower, 0.345 nM
- B7 — 1.7-fold lower, 0.632 nM
- B8 — 1.9-fold lower, 0.548 nM
- B9 — 33-fold higher, 34.8 nM
- B10 — 29-fold higher, 31.2 nM
- B12 — 3.4-fold lower, 0.313 nM
- B13 — 4-fold lower, 0.267 nM
- B14 — 3.1-fold lower, 0.343 nM
- B15 — 3.1-fold lower, 0.344 nM
- B16 — within 1.5-fold, 0.761 nM
- B17 — 2.8-fold lower, 0.383 nM
- B18 — 1.7-fold lower, 0.638 nM
